Measurements reported in the DeepSol protein solubility set.

Test: soluble on expression in E. coli; label from the status in PepcDB or PDB records

Sequence | soluble on expression in E. coli
RPNVERDAQRRVNIRVTDEIVTALNERRIVMAFEPVVQAVSRAPAFHECLVRMKQDDGELLLAPDIVPVAEKLGLIRLVDHRVLELVVAELAAAPGVELSLNISPDTTMDADWWASIESLLGANPGVAERLIVEITETVAIQDLDDVRGFVNRLKNFGARIAIDDFGAGYTSFRNLRNLGVDIVKIDGAFVQNIARSADDRAFVQTLIDLARRLEIKTVAEWVQDEASAIMLRDWGCDYIQGRLIGLA | not soluble
MPLSGEYAPSPLDWSREQADTYMKSGGTEGTQLQGKPVILLTTVGAKTGKLRKTPLMRVEHDGQYAIVASLGGAPKNPVWYHNVVKNPRVELQDGTVTGDYDAREVFGDEKAIWWQRAVAVWPDYASYQTKTDRQIPVFVLTPVRAGG | soluble
MRQHTRIANHNHYSWRIAVMTDTHSIAQPFEAEVSPANNRHVTVGYASRYPDYSRIPAITLKGQWLEAAGFATGTAVDVKVMEGCIVLTAQPPAAEESELMQSLRQVCKLSARKQKQVQAFIGVIAGKQKVA | not soluble
MIMVNNDAVVRNVYHKYFHPKEALVSSGVLNREISRAAGKAVPGIIDEESSGNNAQ | soluble
MSLDAAGLARSTFFYHQQRLNVPDKHIDLKEAIVEVFTRTNRRYGYRRIHAHLRQDGWNVNHKLVYKLMDELGLKSKVRAKKRYNAYQGTVSHIAENVLDRCFTPDKPNTVWTSDVTEFRIAGTKVYLSPIMDLYDRSIVSYSVSTSPNTAFTSRSLKDAITSQSPGSGLLVHTDQGIQYQHSSWRDLITSIDGIQSMSRKGNCYDNAVMENFFGHLKSEMHHGESFDGLEHFRQALDGYIHWYNHERIQKRLKGLAPMQYRNQTLEPLTAEGHHHHHH | not soluble
MGSDKIHHHHHHMIIIIDEASAKLASFYYHDEIFKPQWKCAADMSSASDELHDEFQEKLQEKLPDELREKLYVVLPADESINDFQKTTIQESADNTAKANTGNLRIPKAPTDCIWIVSDRQQKQIADSLGIASVGEPQCGTRYAVESLAELDIEYLERVRRRYNHIPWDIGETDRCLIRELSLADLPALYELYDKPGMTDFVEPLYDYETELEYQKAYIENMYDFYEYGMWLVFSKETGKLIGRAGLEHNEMGYMIAPEFQNLGYATEVCRFIVDYARKNTDFEELYCRIDEKNVASVRLAKRLGFVRNGQIGNERNTGGLDRYVLSI | not soluble
MVAGFTVHSGPHHVPHRDMTHHSRPPGHAPRVTILMPVYNGEKYLAAAMESILDQTFRDFILLIIDDGSSDSSLAIARSFGDPRVQVERNPKNLGLVKTLNRGLDLVQTEFVARMDCDDIALPDRLEKQIAFLDENPDIGMCGTAYELFHESLRQTIRPPCRHEEIVYGLLDDNVFLHSSVIVRMEVLNRHGLRYREDYRLAEDYELWARLARYTHIGNLPQVLVRYRSHPENVSNTNKGEQIATRDRVRLEHLESFGLAPAADQKTLHIDLFSLAFQGSPDQLADARRWLEALARAVSTRCGLPLGRLHRDFALLWYSACGRSAHHGLTVLFSYLKSAMAWKGPKSYILKLLFRCLMRDPIPAVTK | not soluble
MSHQEQQEQEIEALEAIYSEEEIHVASRDYPNIELSIQLKSNQYEDPTDDDFDVELGIEFTENYPDEIPIITLNGIEDAFTAERIAESIDKLRSVAEENLGMVMVFAIVSALQDEIGELVDVKKRAKEEKVEIEKEKKEAESRKKFEGTVVTPDTFRAWKDRFDEERKAEIDAAEKERLASLAGRLTGRQLFLRDATLNLSDVTLIGAQDEVEIDESLFDNEELEGLEMDSEEEEEDDEE | soluble
MGSDKIHHHHHHMKRLSLLERSRLPTNDLGNARRLFEAANGRLLWLADGAGGKGCWIAFDGIRWSADEGPMRALAFAQKAAVEICDEAHALRECTADELAEVYGRKFSKEMAEERAGQLWTWSIKSGDSAKTTAMQNQFKGLRDGDEGPFVTQVWQRDFDAQPMAYHCSNGTLRFVQDDAGTWSHVFEKGHRPDDRFMQVANVAYDAAAKAKAWIERMEVMHHDPVQRTALQRIYGMTLTALISDQAFYIFQGKGQDGKSVTNDVVCQLHGMYARKADPKTFLEGPTQQSSGPQSDIVRLAGDVRLVVMDEPKKNSTWDGQKIKQATGSEMIARGVHATTELSFTPHWQLIAECNGLPKAPSDDRGFRRRFKLYPWVVQFGVTPGVADEPVHLVKARLIGEGSGVLNWMIKGCVEWLNERVVPEPEAAKRATASFWSASSAMGEWIASHCDLSDPEAREEATPLYKAFRQFCIDRGDDETKIITQTTFGRQLNDAQIYRVPNNSTGKVERVGIRLKRVDELGGGALSTSGRDTFDDDVARFDADNRDPFGAP | not soluble
MQAWIQQGLHGMQMGGRVGNYDQTFVVYGPVFLPNATQSKISEINYGGKILLPSSALNLLMQYNIPMPMLFKLTNMAVQRVTHCGVLEFSAPEGQAILPLWMMQQLGLDDGDTIRIESATLPKATFAKLKPMSLEFLNITNPKAVLEVELRKYACLTKNDRIPTSYAGQTLEFLVVDLKPANSVCIIECDVNLDFDPPEGYVEQPRQVTPAVTAKPPAPDASAFIGAGQKAGGSGGTGQNATSVFGGAGRRLDGKKKPSSSVSLSDGTGVSTSNAAPVANDLPAIPPVVVNEDYKPGRVSFLRYDYKRVDVLEKELREKEASKAGQPSNVFRGGNRTLRGAR | not soluble
MPEEIATLAGGCFWCTEAAFKLLRGVLEVVPGYAGGHVPHPTYEEVCTGTTGHREAVQVRFDPGVLPYADLLRYFFAVHDPTSEDRQGPDVGPQYSPAIFYHSEEQKRVAEAVMRELAPLYPKPIATKLLPFTTFYPAEAYHRDYFARHPEAPYCRFVIAPKLEKARKAFKSLLRP | soluble
MSLISEVVVTTRKNNRDNKAPIGVYFKDKKVIMHLFSGSHTYENLLTEDYFSVNVVPPIEIAKAVLDDEDDYLYYNDIPYLKSSYYAIFYKVIERKFVDREDKFGKNRLMILEGEEIKRIYLNNIPKPYNRADGLLVEIAVIYSRLANKNIKINEDDKKEMINDIRKYFSIIKKVGGREHKQLAEIMLRNLNLLEGHHHHHH | soluble
MTATATEGAKPPFVSRSVLVTGGNRGIGLAIAQRLAADGHKVAVTHRGSGAPKGLFGVEVDVTDSDAVDRAFTAVEEHQGPVEVLVSNAGLSADAFLMRMTEEKFEKVINANLTGAFRVAQRASRSMQRNKFGRMIFIGSVSGLWGIGNQANYAASKAGVIGMARSIARELSKANVTANVVAPGYIDTDMTRALDERIQQGALQFIPAKRVGTPAEVAGVVSFLASEDASYISGAVIPVDGGMGMGH | soluble
MGSDKIHHHHHHMTLPMPEKFWDIRIHKVDIHPGVTGLCVGYERGVWRKDQFVRHAMDWLPEFALKESELKGVDSANMVQMVRDAATAIYKSEKFHKRGEFGELFLHMAKRQVFNSIPAVSKIYYKTARNDTVKGFDSVHVVEAEDGLELWLGEVKFYKDLNSAVADVVKELQGHTQTDYLRDEFNLIMNKVDRDWEHYETMKRLMSKNTSLDEVFKRACIPVLLTYESEAICQCSVCDEEYKKLFINEIREAYKLFSSKKLPTDIRIHLFLFPLASKPELIKALDKKLKLWQQL | not soluble
MTIDDSNRLLMDVDQFDFLDDGTAQLSNNKTDEEEQLYKRDPVSGAILVPMTVNDQPIEKNGDKMPLKFKLGPLSYQNMAFITAKDKYKLYPVRIPRLDTSKEFSAYVSGLFEIYRDLGDDRVFNVPTIGVVNSNFAKEHNATVNLAMEAILNELEVFIGRVKDQDGRVNRFYELEESLTVLNCLRTMYFILDGQDVEENRSEFIESLLNWINRSDGEPDEEYIEQVFSVKDSTAGKKVFETQYFWKLLNQLVLRGLLSQAIGCIERSDLLPYLSDTCAVSFDAVSDSIELLKQYPKDSSSTFREWKNLVLKLSQAFGSSATDISGELRDYIEDFLLVIGGNQRKILQYSRTWYESFCGFLLYYIPSLELSAEYLQMSLEANVVDITNDWEQPCVDIISGKIHSILPVMESLDSCTAAFTAMICEAKGLIENIFEGEKNSDDYSNEDNEMLEDLFSYRNGMASYMLNSFAFELCSLGDKELWPVAIGLIALSATGTRSAKKMVIAELLPHYPFVTNDDIEWMLSICVEWRLPEIAKEIYTTLGNQMLSAHNIIESIANFSRAGKYELVKS | soluble
MEAEMSDERCALVLEGGAMRGMYTAGVLDCFMDHDISFDAVIGVSAGALFGVNLLSKQRGRVIRYNKRFNSDKNYMGIRPLLREKNIVSTKYAYDTVPRELDPFDDEEYKKSDIPFYAVVTNIRTGKPEYVQIKSVFDQMDVLRASGSMPVVSKPVKLGNEWYLDGAVTDSIPYEHMLDMGYDRVVVVLTKPADYIKKPMPRLFTSVYKKRFPRFYEAFSNRHIMYNYQLEHLKELEKQGIAEVLRPSEHIKISKVEKDPNKLESLYQLGLRDAKRLLADKQGMEKQ | not soluble
MARNVKGYASTLTWTITRNTLNFLWEQGFKMRINREEILDLMKNAPLKELGQRALRVKQRLHPENLTTFIVDRNINYTNICFVDCKFCAFKRTLKEKDAYVLSYEEIDQKIEELLAIGGTQILFQGGVHPQLKIDYYENLVSHIAQKFPTITIHGFSAVEIDYISKISKLSLKEVLERLKNAGLSSIPGAGAEVLSDRVRDVIAPKKLSSDRWIEVHRMAHLCGIKSTATMMFGSVDNEEDVVEHLQRVRDLQDETGGFRAFILWSFQPNNTPLKEEIPSIKKASSNRYLRYLACSRIFLDNIQNIQSSWVTQGSMIGQLALLFGANDLGSVMMEENVVKAAGTSFCMNEAGMIELIEDIGSVAAKRNTAYEILKRYPAKAKV | not soluble
MGSDKIHHHHHHMQNHVISLASAAERRAHITDTFGVRGIPFQFFDALMPSERLEQAMAELVPGLSAHPYLSGVEKACFMSHAVLWKQALDEGLPYIAVFEDDVLLGEGAEKFLAEDAWLQERFDPDSAFIVRLETMFMHVLTSPSGVADYCGRAFPLLESEHWGTAGYIISRKAMWFFLDRFAALPSEGLHPVDWMMFGNPDDRERMPVCQLNPALCAQELHYAKFHDQNSALGSLIEHDRCLNSKQQRRDSPANTFKHRLIRALTKISREREKRRQRREQLIGKIIVPFQ | not soluble
SFLSEAGARPRAGEISASERRKWVEVFKACDEDNKGYLSREDFKVAIVMLFGYKPSKIEADAVMSSANPDTSGVSLEGFLNVVQRKKEAQLYRNEIRHIFTAFDVHYRGFLTLEDFKRAFSQVAPKLPSRTVLEVFREADQDSDGHVSFRDFEYAMNHGKAK | soluble
MDHQFGYGVEVTGLSPSVTHNDLIDFFSFSGTIQDIDIVRSGEQACTAYVMFKDSYSQETAVLLTGATILDQRVCITRWGQHHEEFDFWNATSRGFEDESDSQHYAQRSEFNAGEAVTKAQEVVKIMLATGFVLGKDALSKAKAFDESHGVSAAAVARVSQLEQRIGLTDKIFTGLEAVRMTDQRYHVSDTAKSAVFATGRTAAAAATSVVNSSYFSSGALWLSGALERAAKAASDLGTRGSRQ | soluble
LGTERQREHPFIVTEPGEVARGKKNGLDYLFHLYEQCREFLLQVQTIAKDRGEKCPTKVTNQVFRYAKKSGASYINKPKMRHYVHCYALHCLDEEASNALRRAFKERGENVGSWRQACYKPLVNIACRHGWDIDAVFNAHPRLSIWYVPTKLRQLCHLERNNAVAAAAALVGGISCTGSSTSGRGGCGGDDLRF | soluble
MAGDPMTALKYLQAYPVALQQQVRQLIDEQRLGDYLSQRYPGRHAVQSDKALYSYALELKQEYLRNAPAIDKVLFDNRLDLTHRALGLHTTVSRVQGGKLKAKKEIRIASLFKEAAPEFLRMIVVHELAHFKESDHNKAFYKLCEHMLPGYHQLEFDLRVYLTWRDLQGKAGAPDLEHHHHHH | soluble
SLSCRKEQGKFYDHLLRDCISCASICGQHPKQCAYFCENKLR | soluble
